From patent US20250304643A1 (BAINAN BIOTECH, published 2025)
*1 amine or outer side, *2 acyl side, *3 side chain or, on linkers, in order; H or OH if unused. Where no end group is shown, it is not given here. Side-chain parts run from the residue outwards. [ ]: non-standard residue; d: D form. The star is where a group is joined. C18 diacid = O=C(O)CCCCCCCCCCCCCCCCC(=O)*; C16 diacid = O=C(O)CCCCCCCCCCCCCCC(=O)*; γGlu = O=C(O)[C@H](CCC(=O)[*:2])N[*:1]; Palmitoyl = CCCCCCCCCCCCCCCC(=O)*; Decanoyl = CCCCCCCCCC(=O)*; AEEA = NCCOCCOCC(=O)O; Aib = CC(C)(N)C(=O)O

T1: human GLP-2R (glucagon-like peptide-2 receptor) (human, UniProt O95838 1-553)
T1 sequence (looked up): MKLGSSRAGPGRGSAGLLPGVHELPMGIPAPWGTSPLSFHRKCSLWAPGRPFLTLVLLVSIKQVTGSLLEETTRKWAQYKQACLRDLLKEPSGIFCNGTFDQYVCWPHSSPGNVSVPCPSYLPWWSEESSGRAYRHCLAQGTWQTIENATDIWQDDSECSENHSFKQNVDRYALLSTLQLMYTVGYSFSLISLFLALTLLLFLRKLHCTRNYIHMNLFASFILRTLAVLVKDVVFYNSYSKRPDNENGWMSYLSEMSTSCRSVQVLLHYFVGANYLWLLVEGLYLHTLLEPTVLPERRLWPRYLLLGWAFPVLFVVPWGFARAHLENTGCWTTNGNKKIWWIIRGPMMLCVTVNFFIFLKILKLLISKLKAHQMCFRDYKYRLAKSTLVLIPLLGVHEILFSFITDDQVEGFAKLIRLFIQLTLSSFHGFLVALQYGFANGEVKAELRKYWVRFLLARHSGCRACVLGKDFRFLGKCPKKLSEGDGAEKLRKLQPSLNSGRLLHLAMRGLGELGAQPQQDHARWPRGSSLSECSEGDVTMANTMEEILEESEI

T2: human GIPR (glucose-dependent insulinotropic polypeptide receptor) (human, UniProt P48546 22-466)
T2 sequence (looked up): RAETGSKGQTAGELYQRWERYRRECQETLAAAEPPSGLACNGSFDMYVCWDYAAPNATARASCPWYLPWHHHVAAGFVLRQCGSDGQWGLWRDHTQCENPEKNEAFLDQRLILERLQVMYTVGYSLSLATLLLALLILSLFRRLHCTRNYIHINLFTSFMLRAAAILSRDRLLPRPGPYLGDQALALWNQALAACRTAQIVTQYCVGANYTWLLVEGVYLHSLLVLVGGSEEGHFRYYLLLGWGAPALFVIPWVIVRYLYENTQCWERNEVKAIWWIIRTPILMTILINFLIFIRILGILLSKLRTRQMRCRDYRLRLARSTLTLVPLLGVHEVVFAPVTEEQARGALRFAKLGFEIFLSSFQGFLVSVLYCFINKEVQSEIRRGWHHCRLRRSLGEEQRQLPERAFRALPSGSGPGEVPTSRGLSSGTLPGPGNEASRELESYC

T3: rat GIPR (rat, UniProt P43219 19-455)
T3 sequence (looked up): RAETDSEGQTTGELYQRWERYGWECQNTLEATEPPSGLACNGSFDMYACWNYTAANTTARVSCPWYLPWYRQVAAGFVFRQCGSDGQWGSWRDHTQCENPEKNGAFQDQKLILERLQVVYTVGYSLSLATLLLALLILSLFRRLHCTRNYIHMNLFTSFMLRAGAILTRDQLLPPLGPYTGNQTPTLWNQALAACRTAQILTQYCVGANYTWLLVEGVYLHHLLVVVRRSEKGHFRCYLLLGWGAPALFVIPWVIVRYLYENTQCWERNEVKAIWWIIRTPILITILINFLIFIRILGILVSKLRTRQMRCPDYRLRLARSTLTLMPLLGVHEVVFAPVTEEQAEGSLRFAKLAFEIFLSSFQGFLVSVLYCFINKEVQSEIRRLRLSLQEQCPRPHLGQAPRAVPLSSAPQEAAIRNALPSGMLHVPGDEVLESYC

B1: Compound no. 25 (peptide)
peptide: H[Aib]DGK([γGlu-C16 diacid])FISDYST[Aib]LDNLAARDFINWLIQTKITK-OH
modifications: N-terminus assumed
SMILES: CC[C@H](C)[C@H](NC(=O)[C@H](Cc1ccccc1)NC(=O)[C@H](CCCCNC(=O)CC[C@H](NC(=O)CCCCCCCCCCCCCCC(=O)O)C(=O)O)NC(=O)CNC(=O)[C@H](CC(=O)O)NC(=O)C(C)(C)NC(=O)[C@@H](N)Cc1c[nH]cn1)C(=O)N[C@@H](CO)C(=O)N[C@@H](CC(=O)O)C(=O)N[C@@H](Cc1ccc(O)cc1)C(=O)N[C@@H](CO)C(=O)N[C@H](C(=O)NC(C)(C)C(=O)N[C@@H](CC(C)C)C(=O)N[C@@H](CC(=O)O)C(=O)N[C@@H](CC(N)=O)C(=O)N[C@@H](CC(C)C)C(=O)N[C@@H](C)C(=O)N[C@@H](C)C(=O)N[C@@H](CCCNC(=N)N)C(=O)N[C@@H](CC(=O)O)C(=O)N[C@@H](Cc1ccccc1)C(=O)N[C@H](C(=O)N[C@@H](CC(N)=O)C(=O)N[C@@H](Cc1c[nH]c2ccccc12)C(=O)N[C@@H](CC(C)C)C(=O)N[C@H](C(=O)N[C@@H](CCC(N)=O)C(=O)N[C@H](C(=O)N[C@@H](CCCCN)C(=O)N[C@H](C(=O)N[C@H](C(=O)N[C@@H](CCCCN)C(=O)O)[C@@H](C)O)[C@@H](C)CC)[C@@H](C)O)[C@@H](C)CC)[C@@H](C)CC)[C@@H](C)O

Biological target: T1, human GLP-2R (glucagon-like peptide-2 …)
Assay: cell-based or functional assay

| cAMP assay: EC50 (nM) GLP-2R [nM] | cAMP assay: Efficacy GLP-2R [%] | cAMP assay: logEC50 GLP-2R | Binder |
| --- | --- | --- | --- |
| 10 | 70 | 8 | Palmitoyl-HADGTFISDYSTILDNLAARDFIEWLIQTKITKNDWKHNITQ [Compound no. 50] |
| 7.9 | 68 | 8.1 | Palmitoyl-HADGTFISDYSTILDNLAARDFINWLIATKITKNDWKHNITQ [Compound no. 52] |
| 12.6 | 66 | 7.9 | Palmitoyl-HADGTFISDYSTILDNLAARDFINWLIETKITKNDWKHNITQ [Compound no. 51] |
| 4 | 79 | 8.2 | Palmitoyl-HADGTFISDYST[Aib]LDNLAARDFINWLIQTKITKNDWKHNITQ [Compound no. 53] |
| 35.5 | 92 | 7.5 | Palmitoyl-HADGTFISDYSTILDNLAARDFINWLIQTKITKAEWKHAITQ [Compound no. 49] |
| 25.1 | 69 | 7.6 | Palmitoyl-HADGTFISDYSTILDELAARDFINWLIQTKITKNDWKHNITQ [Compound no. 48] |

Biological target: T2, human GIPR (glucose-dependent …)
Assay: cell-based or functional assay

| cAMP assay: EC50 (nM) GIPR [nM] | cAMP assay: Efficacy GIPR [%] | Binder |
| --- | --- | --- |
| 0.891 | 101 | Palmitoyl-HADGTFISDYSTILDNLAARDFIEWLIQTKITKNDWKHNITQ [Compound no. 50] |
| 0.251 | 96 | Palmitoyl-HADGTFISDYSTILDNLAARDFINWLIATKITKNDWKHNITQ [Compound no. 52] |
| 1.41 | 74 | HADGTFISDYSTILDKLAARDFINWLIQTKITK(C16 fatty acid) [Compound no. 58] |
| 0.398 | 104 | Palmitoyl-HADGTFISDYSTILDNLAARDFINWLIETKITKNDWKHNITQ [Compound no. 51] |
| 12.6 | 97 | HADGTFISDYSTILDKLAARDFINWLIQTK(C16 fatty acid)ITK [Compound no. 57] |
| 0.316 | 90 | Palmitoyl-HADGTFISDYST[Aib]LDNLAARDFINWLIQTKITKNDWKHNITQ [Compound no. 53] |
| 2.82 | 105 | Palmitoyl-HADGTFISDYSTILDNLAARDFINWLIQTKITKAEWKHAITQ [Compound no. 49] |
| 2.82 | 112 | Palmitoyl-HADGTFISDYSTILDELAARDFINWLIQTKITKNDWKHNITQ [Compound no. 48] |
| 1.17 | 86 | H[Aib]DGTFISDYK([γGlu-Decanoyl])T[Aib]LDNLAARDFINWLIQTKITGNDWKHNITQ-OH [Compound no. 54, listing 1 of 2 here] |

Biological target: T4, human GLP-1R (GLP-1 receptor) (human, UniProt P43220 24-463)
Assay: cell-based or functional assay

| cAMP assay: Efficacy GLP-1R [%] | Binder |
| --- | --- |
| 84 | HXDGTFISDYSTILDNLAARDFINWLIQTKITK (Aib at 2; K(C10) at 33 (C-terminal residue); C-terminus -OH) [Compound no. 63] |
| 76 | HXDGTFISDYSTXLDNLAARDFINWLIQTKITK (Aib at 2 and 13; K(C10) at 33 (C-terminal residue); C-terminal amide (-NH2)) [Compound no. 65] |
| 85 | HADGTFISDYSTILDK([AEEA-AEEA-γGlu-C18 diacid])LAARDFINWLIQTKGKK [Compound no. 64] |
| 85 | HADGTFISDYST[Aib]LDK([AEEA-AEEA-γGlu-C18 diacid])LAARDFINWLIQTKGKK [Compound no. 62] |
| 105 | HADGTFISDYSTILDNLAARDFINWLIQTKGKK([AEEA-AEEA-γGlu-C18 diacid]) (also: K33: γGlu-C18-diacid linker 2xAEEA-γGlu) [Compound no. 60] |

Biological target: T2, human GIPR (glucose-dependent …)
Assay: cell-based or functional assay
Remark: another data set of the same source

| cAMP assay: Efficacy GIPR [%] | Binder |
| --- | --- |
| 99 | HXDGTFISDYSTILDNLAARDFINWLIQTKITK (Aib at 2; K(C10) at 33 (C-terminal residue); C-terminus -OH) [Compound no. 63] |
| 107 | HXDGTFISDYSTXLDNLAARDFINWLIQTKITK (Aib at 2 and 13; K(C10) at 33 (C-terminal residue); C-terminal amide (-NH2)) [Compound no. 65] |
| 97 | HGEGSFGSDMSIALDKLAARDFVNWLLQTKITD (also: C14 fatty acid at C-terminus, attachment not given here) [Compound no. 66] |
| 86 | HADGTFISDYST[Aib]LDK([AEEA-AEEA-γGlu-C18 diacid])LAARDFINWLIQTKGKK [Compound no. 62] |
| 93 | HADGTFISDYSTILDNLAARDFINWLIQTKGKK([AEEA-AEEA-γGlu-C18 diacid]) (also: K33: γGlu-C18-diacid linker 2xAEEA-γGlu) [Compound no. 60] |

Biological target: T4, human GLP-1R (GLP-1 receptor)
Assay: cell-based or functional assay
Remark: another data set of the same source

| cAMP assay: EC50 (nM) GLP-1R [nM] | cAMP assay: Efficacy GLP-1R [%] | cAMP assay: logEC50 GLP-1R | Binder |
| --- | --- | --- | --- |
| 100 | 73 | 7 | HADGTFISDYSTILDKLAARDFINWLIQTK(C16 fatty acid)ITK [Compound no. 57] |
| 39.8 | 8 | 7.4 | H[Aib]DGTFISDYK([γGlu-Decanoyl])T[Aib]LDNLAARDFINWLIQTKITGNDWKHNITQ-OH [Compound no. 54, listing 1 of 2 here] |

Biological target: macaque GIPR (macaque)
Assay: cell-based or functional assay

| Efficacy (%) | pEC50 | Binder |
| --- | --- | --- |
| 92.5 | 9 | HXDGTFISDYKTILDNLAARDFINWLIQTKITK (Aib at position 2; K(γGlu-C16) at position 11; C-terminal -OH) [Compound no. 11] |
| 71.8 | 7.7 | H[Aib]DGTFISDYK([γGlu-Decanoyl])T[Aib]LDNLAARDFINWLIQTKITGNDWKHNITQ-OH [Compound no. 54, listing 2 of 2 here] |

Biological target: T3, rat GIPR
Assay: cell-based or functional assay

| Efficacy (%) | pEC50 | Binder |
| --- | --- | --- |
| 71.7 | 8 | B1 |

Biological target: T1, human GLP-2R (glucagon-like peptide-2 …)
Assay: cell-based or functional assay
Remark: another data set of the same source

| cAMP assay: Efficacy GLP-2R [%] | Binder |
| --- | --- |
| 105 | HXDGTFISDYSTILDNLAARDFINWLIQTKITK (Aib at 2; K(C10) at 33 (C-terminal residue); C-terminus -OH) [Compound no. 63] |
| 77 | HXDGTFISDYSTXLDNLAARDFINWLIQTKITK (Aib at 2 and 13; K(C10) at 33 (C-terminal residue); C-terminal amide (-NH2)) [Compound no. 65] |
| 75 | HADGTFISDYSTILDK([AEEA-AEEA-γGlu-C18 diacid])LAARDFINWLIQTKGKK [Compound no. 64] |
| 83 | HADGTFISDYST[Aib]LDK([AEEA-AEEA-γGlu-C18 diacid])LAARDFINWLIQTKGKK [Compound no. 62] |
| 90 | HADGTFISDYSTILDNLAARDFINWLIQTKGKK([AEEA-AEEA-γGlu-C18 diacid]) (also: K33: γGlu-C18-diacid linker 2xAEEA-γGlu) [Compound no. 60] |
